Assay results: patent publication US20240016923A1 (UNIVERSITY OF MARYLAND COLLEGE PARK, published 2024)
Ends that are not written are not given here.

B1: HC84.24 (antibody, V domains shown)
VH: QVQLVQSGAEVKKPGSSVKVSCKASGGTFSLNSLSWVRQAPGQGLEWMGTIIPIVGIANYAQKFQGRVTITADKSTGTAYMDLSSLSDDTAVYFCARELYSGTGFFRLEALDYWGQGTLVTVSS
VL: DIQMTQSPATLSLSPGERATLSCRASQSVSSYLAWYQQKPGQAPRLLIYDASNRATGIPARFIAGGSGTDFTLTISSLEPEDFAVYYCQQYGSPQTFGQGTKLEIKR
B2: secreted E1E2 with c-Fos/c-Jun leucine zipper scaffold (sE1E2.LZ) (other)
chain 1: YQVRNSSGLYHVTNDCPNSSIVYEAADAILHTPGCVPCVREGNASRCWVAVTPTVATRDGKLPTTQLRRHIDLLVGSATLCSALYVGDLCGSVFLVGQLFTFSPRRHWTTQDCNCSIYPGHITGHRMAWDMMMNWSPTAALVVAQLLRIPQAIMDMIAPGGRIARLEEKVKTLKAQNSELASTANMLREQVAQLKQKVMNYRRRRRR
chain 2: ETHVTGGSAGRTTAGLVGLLTPGAKQNIQLINTNGSWHINSTALNCNESLNTGWLAGLFYQHKFNSSGCPERLASCRRLTDFAQGWGPISYANGSGLDERPYCWHYPPRPCGIVPAKSVCGPVYCFTPSPVVVGTTDRSGAPTYSWGANDTDVFVLNNTRPPLGNWFGCTWMNSTGFTKVCGAPPCVIGGVGNNTLLCPTDCFRKHPEATYSRCGSGPWITPRCMVDYPYRLWHYPCTINYTIFKVRMYVGGVEHRLEAACNWTRGERCDLEDRDRSELSPLLLSTTQWQVLPCSFTTLPALSTGLIHLHQNIVDVQYLYGVGSSIASWAIPGGLTDTLQAETDQLEDKKSALQTEIANLLKEKEKLEFILAAYHHHHHH
notes: It is written here as the two chains expected after furin cleavage
B3: c-Jun peptide (peptide)
peptide: RIARLEEKVKTLKAQNSELASTANMLREQVAQLKQKVMNY
modifications: also: biotinylated, position not given here
notes: Synthetic biotinylated peptide

How the values were obtained:
[1] = molecular target: T1, membrane-bound E1E2 (mbE1E2) (Hepatitis C virus, isolate H77C …, UniProt P27958 192-746); assay: dose-dependent ELISA, antigen captured by GNA lectin
T1 construct: Extracted from Expi293 membranes with detergent and purified; a heterogeneous mix of oligomers

[2] = molecular target: B2; assay: as above
[3] = molecular target: T2, CD81 large extracellular loop (CD81-LEL) (UniProt P60033 113-201); assay: SPR (Biacore T200); sE1E2.LZ amine-coupled to a CM5 chip, CD81-LEL injected; 1:1 model
T2 construct: domain: large extracellular loop (LEL); also called CD81 receptor
T2 sequence (looked up): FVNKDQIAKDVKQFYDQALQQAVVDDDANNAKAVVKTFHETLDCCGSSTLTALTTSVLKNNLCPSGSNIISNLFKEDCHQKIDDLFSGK

[4] = molecular target: T2, CD81 large extracellular loop (CD81-LEL); assay: SPR (Biacore T200), antigen amine-coupled on CM5 chip, CD81-LEL injected, single cycle kinetics, 1:1 model
c-Fos peptide = molecular target: T3, c-Fos peptide (human); assay: circular dichroism spectroscopy of mixed peptides
T3 construct: Synthetic biotinylated peptide

Binder: B1
- Kd [1]: 0.5 nM
- Kd [2]: 1.3 nM

Binder: B2
- koff [3]: 0.00067 s⁻¹
- kon [3]: 63000 M⁻¹ s⁻¹
- Kd [4]: 10.8 nM

Binder: B3
- binding result (c-Fos peptide): binds
